Literature values in PMC3415683.

Target: Dll-1 DSL-EGF3 (Homo sapiens) (UniProt O00548)
Test: SPR

Sequence of UniProt O00548 (O00548 177-325): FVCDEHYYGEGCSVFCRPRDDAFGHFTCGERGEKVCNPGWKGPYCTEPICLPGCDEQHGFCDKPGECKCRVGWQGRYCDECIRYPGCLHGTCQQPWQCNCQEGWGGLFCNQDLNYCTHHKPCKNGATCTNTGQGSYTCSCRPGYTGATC

Notch1 EGF11-14 (from UniProt P46531)
Kd: 130 µM
